The target in this data set is RecA (UniProt P0A7G6). The settings on record: FITC-avidin confocal microscopy, permeabilized HEp-2 nuclei in agarose, 37 C; no signal without recA or with BSA.
Sequence of RecA (P0A7G6 2-353): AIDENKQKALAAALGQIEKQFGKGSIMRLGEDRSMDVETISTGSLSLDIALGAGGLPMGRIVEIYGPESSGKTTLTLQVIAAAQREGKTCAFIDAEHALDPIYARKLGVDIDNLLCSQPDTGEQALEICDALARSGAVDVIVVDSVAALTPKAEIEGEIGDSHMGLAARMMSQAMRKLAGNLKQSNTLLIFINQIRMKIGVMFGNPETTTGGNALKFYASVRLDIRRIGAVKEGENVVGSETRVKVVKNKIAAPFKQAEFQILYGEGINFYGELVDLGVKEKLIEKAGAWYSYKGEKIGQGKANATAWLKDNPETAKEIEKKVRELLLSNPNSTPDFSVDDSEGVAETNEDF

On to “human chromosome 1 alpha-satellite targeting polynucleotides (nick-translated pUC 1.77, denatured)”, for which the binding (% nuclei with signal) is over 25.

The values above are taken from patent US5763240.
